In patent US20210380994A1, “LACTOCOCCUS LACTIS EXPRESSION SYSTEM FOR DELIVERING PROTEINS EFFICACIOUS FOR THE TREATMENT OF EPITHELIAL BARRIER FUNCTION DISORDERS” (Second Genome, Inc., priority 2018, published 2021):
Read-outs that look alike come from different tables or passages of the source.

Legend:
[1] = post-translational modification (PTM) analysis by LC/MS/MS peptide mapping; format: physicochemical; conditions: non-stress
Procedure: Studies were performed to identify residues of SG-11 particularly susceptible to PTMs using LC/MS/MS. The analysis was performed by LakePharma (Belmont, Calif.) to 1) confirm the amino acid sequence of SG11 (SEQ ID NO-9), and 2) determine any post-translational modification which could lead to reduced biological activity and immunogenicity, particularly deamidation and oxidation.
For peptide mapping and PTM analysis, samples were treated with DTT and IAA, followed by trypsin digestion. The digested sample was then analyzed by Waters ACQUITY UPLC coupled to Xevo G2-XS QTOF mass spectrometer using a Protein BEH C18 column.

[2] = for Carbamidomethy C147, VDGEICYVSCQNVK (SEQ ID NO: 18) / Carbamidomethy C151, VDGEICYVSCQNVK (SEQ ID NO: 18): artificial carbamidomethylation by iodoacetamide
[3] = normalized to corresponding precursor
[4] = normalized to total peptide ion intensity

B1: SG-11: Roseburia hominis protein comprising SEQ ID NO:3; tested as SEQ ID NO:5, SEQ ID NO:7 or FLAG-tagged SEQ ID NO:9 (protein, listed as Rosburia hominis)
chain: LEGEESVVYVGKKGVIASLDVETLDQSYYDETELKSYVDAEVEDYTAEHGKNAVKVESLKVEDGVAKLKMKYKTPEDYTAFNGIELYQGKVVASLAAGYVYDGEFARVEEGKVVGAATKQDIYSEDDLKVAIIRANTDVKVDGEICYVSCQNVKLTGKDSVSIRDGYYLETGSVTASVDVTGQESVGTEQLSGTEQMEMTGEPVNADDTEQTEAAAGDGSFETDVYTFIVYK
Deamidation N83 (peptide TPEDYTAFNGIELYQGK), % peptide [1, 3]: 3.77% | Deamidation N137 (peptide ANTDVK), % peptide [1, 3]: 1.03% | Deamidation N153 (peptide VDGEICYVSCQNVK), % peptide [1, 3]: 0.2% | Deamidation N53 (peptide NAVK), % peptide ([1]; normalized to total intensity of corresponding precursor with or without modification): 7.84% | Deamidation N53 (peptide NAVK), % total ion [1, 4]: 0.01% | Deamidation N83 (peptide TPEDYTAFNGIELYQGK), % total ion [1, 4]: 0.25% | Deamidation N137 (peptide ANTDVK), % total ion [1, 4]: 0.25% | Deamidation N153 (peptide VDGEICYVSCQNVK), % total ion [1, 4]: 0.01% | Oxidation M1 (peptide MLEGEESVVYVGK), % total ion [1, 4]: <0.01% | cleavage by trypsin (SDS-PAGE) (trypsin): a predominant band is generated in the presence of trypsin | aggregates (SEC-HPLC) ([2]; 4° C., 2 weeks, 1 mg/ml): low level of aggregates | aggregation (SEC-HPLC) ([2]; 37° C., 2 weeks, 1 mg/ml): major aggregation occurred | Deamdation N206, GYYLETGSV...TFIVYK (SEQ ID NO: 29) ([2]; 40° C. for two weeks): 3.62% | Deamidation N83, TPEDYTAFNGIELYQGX (SEQ ID NO: 26) ([2]; 40° C. for two weeks): 99.88% | Deamidation N83 Deamidation Q89, TPEDYTAFNGIELYQGX (SEQ ID NO: 26) ([2]; 40° C. for two weeks): 0.12% | Deamidation N137, ANTDVK (SEQ ID NO: 27) ([2]; 40° C. for two weeks): 14.61% | Deamidation N153, VDGEICYVSCQNVK (SEQ ID NO: 18) ([2]; 40° C. for two weeks): 0% | Deamidation Q30, GVIASLDVETLDQSYYDETELK (SEQ ID NO: 25) ([2]; 40° C. for two weeks): 0.09% | Deamidation Q152 Deamidation N153 Carbamidomethy C151, VDGEICYVSCQNVK (SEQ ID NO: 18) ([2]; 40° C. for two weeks): 3.1% | No modification, ANTDVK (SEQ ID NO: 27) ([2]; 40° C. for two weeks): 85.39% | No modification, GVIASLDVETLDQSYYDETELK (SEQ ID NO: 25) ([2]; 40° C. for two weeks): 99.91% | No modification, GYYLETGSVTASVDVTGQESVGTEQLSGTEQMEMTGEPVNADDTEQTEAAAGDGSFETDVYTFIVYK (SEQ ID NO: 29) ([2]; 40° C. for two weeks): 96.38% | No modification, MLEGEESVVYVGK (SEQ ID NO: 24) ([2]; 40° C. for two weeks): 99.82% | No modification, TPEDYTAFNGIELYQGX (SEQ ID NO: 26) ([2]; 40° C. for two weeks): 0% | No modification, VDGEICYVSCQNVK (SEQ ID NO: 18) ([2]; 40° C. for two weeks): 44.85% | Oxidation M2.00, GYYLETGSV...TFIVYK (SEQ ID NO: 29) ([2]; 40° C. for two weeks): 0% | Oxidation M198, GYYLETGSV...TFIVYK (SEQ ID NO: 29) ([2]; 40° C. for two weeks): 0% | Oxidation of M, MLEGEESVVYVGK (SEQ ID NO: 24) ([2]; 40° C. for two weeks): 0.18% | Carbamidomethy C147, VDGEICYVSCQNVK (SEQ ID NO: 18) ([2]; 40° C. for two weeks): 33.59% | Carbamidomethy C151, VDGEICYVSCQNVK (SEQ ID NO: 18) ([2]; 40° C. for two weeks): 18.45% | Observation of solution ([2]; Freeze and thaw (6 cycles) −80° C. to room temperature): clear | Observation of solution ([2]; Mechanical stress: 350 rpm shake, 4° C., 24 hr): clear | Deamdation N206, GYYLETGSV...TFIVYK (SEQ ID NO: 29) ([2]; No treatment): 0% | Deamidation N53, NAVK (SEQ ID NO 30) ([2]; No treatment): 7.84% | Deamidation N83, TPEDYTAFNGIELYQGX (SEQ ID NO: 26) ([2]; No treatment): 17.43% | Deamidation N83 Deamidation Q89, TPEDYTAFNGIELYQGX (SEQ ID NO: 26) ([2]; No treatment): 0% | Deamidation N137, ANTDVK (SEQ ID NO: 27) ([2]; No treatment): 1.04% | Deamidation N153, VDGEICYVSCQNVK (SEQ ID NO: 18) ([2]; No treatment): 0.02% | Deamidation Q30, GVIASLDVETLDQSYYDETELK (SEQ ID NO: 25) ([2]; No treatment): 0% | Deamidation Q152 Deamidation N153 Carbamidomethy C151, VDGEICYVSCQNVK (SEQ ID NO: 18) ([2]; No treatment): 0% | No modification, ANTDVK (SEQ ID NO: 27) ([2]; No treatment): 98.96% | No modification, GVIASLDVETLDQSYYDETELK (SEQ ID NO: 25) ([2]; No treatment): 100% | No modification, GYYLETGSV...TFIVYK (SEQ ID NO: 29) ([2]; No treatment): 100% | No modification, MLEGEESVVYVGK (SEQ ID NO: 24) ([2]; No treatment): 99.78% | No modification, TPEDYTAFNGIELYQGX (SEQ ID NO: 26) ([2]; No treatment): 82.57% | No modification, VDGEICYVSCQNVK (SEQ ID NO: 18) ([2]; No treatment): 99.98% | Oxidation M2.00, GYYLETGSV...TFIVYK (SEQ ID NO: 29) ([2]; No treatment): 0% | Oxidation M198, GYYLETGSV...TFIVYK (SEQ ID NO: 29) ([2]; No treatment): 0% | Oxidation of M, MLEGEESVVYVGK (SEQ ID NO: 24) ([2]; No treatment): 0.22% | Deamdation N206, GYYLETGSV...TFIVYK (SEQ ID NO: 29) ([2]; Oxidation (H2O2)): 0% | Deamidation N83, TPEDYTAFNGIELYQGX (SEQ ID NO: 26) ([2]; Oxidation (H2O2)): 37% | Deamidation N83 Deamidation Q89, TPEDYTAFNGIELYQGX (SEQ ID NO: 26) ([2]; Oxidation (H2O2)): 0% | Deamidation N137, ANTDVK (SEQ ID NO: 27) ([2]; Oxidation (H2O2)): 16.44% | Deamidation N153, VDGEICYVSCQNVK (SEQ ID NO: 18) ([2]; Oxidation (H2O2)): 0% | Deamidation Q30, GVIASLDVETLDQSYYDETELK (SEQ ID NO: 25) ([2]; Oxidation (H2O2)): 0.07% | Deamidation Q152 Deamidation N153 Carbamidomethy C151, VDGEICYVSCQNVK (SEQ ID NO: 18) ([2]; Oxidation (H2O2)): 0.31% | No modification, ANTDVK (SEQ ID NO: 27) ([2]; Oxidation (H2O2)): 83.56% | No modification, GVIASLDVETLDQSYYDETELK (SEQ ID NO: 25) ([2]; Oxidation (H2O2)): 99.93% | No modification, GYYLETGSV...TFIVYK (SEQ ID NO: 29) ([2]; Oxidation (H2O2)): 19.17% | No modification, MLEGEESVVYVGK (SEQ ID NO: 24) ([2]; Oxidation (H2O2)): 99.88% | No modification, TPEDYTAFNGIELYQGX (SEQ ID NO: 26) ([2]; Oxidation (H2O2)): 63% | No modification, VDGEICYVSCQNVK (SEQ ID NO: 18) ([2]; Oxidation (H2O2)): 63.23% | Oxidation M2.00, GYYLETGSV...TFIVYK (SEQ ID NO: 29) ([2]; Oxidation (H2O2)): 63.9% | Oxidation M198, GYYLETGSV...TFIVYK (SEQ ID NO: 29) ([2]; Oxidation (H2O2)): 16.92% | Oxidation of M, MLEGEESVVYVGK (SEQ ID NO: 24) ([2]; Oxidation (H2O2)): 0.12% | Carbamidomethy C147, VDGEICYVSCQNVK (SEQ ID NO: 18) ([2]; Oxidation (H2O2)): 34.52% | Carbamidomethy C151, VDGEICYVSCQNVK (SEQ ID NO: 18) ([2]; Oxidation (H2O2)): 1.93% | Observation of solution ([2]; Oxidation: Hydroperoxide (0.005%) 40° C., 16 hr): clear | Observation of solution ([2]; Temperature (2 weeks) 4° C.): clear | Observation of solution ([2]; Temperature (2 weeks) 25° C.): clear | Observation of solution ([2]; Temperature (2 weeks) 37° C.): clear | Observation of solution ([2]; Temperature (2 weeks) 40° C.): clear | Observation of solution ([2]; pH 4 and pH 9): clear | Deamdation N206, GYYLETGSV...TFIVYK (SEQ ID NO: 29) ([2]; pH 9): 11.84% | Deamidation N83, TPEDYTAFNGIELYQGX (SEQ ID NO: 26) ([2]; pH 9): 19.1% | Deamidation N83 Deamidation Q89, TPEDYTAFNGIELYQGX (SEQ ID NO: 26) ([2]; pH 9): 0% | Deamidation N137, ANTDVK (SEQ ID NO: 27) ([2]; pH 9): 23.95% | Deamidation N153, VDGEICYVSCQNVK (SEQ ID NO: 18) ([2]; pH 9): 0.35% | Deamidation Q30, GVIASLDVETLDQSYYDETELK (SEQ ID NO: 25) ([2]; pH 9): 0.05% | Deamidation Q152 Deamidation N153 Carbamidomethy C151, VDGEICYVSCQNVK (SEQ ID NO: 18) ([2]; pH 9): 28% | No modification, ANTDVK (SEQ ID NO: 27) ([2]; pH 9): 76.05% | No modification, GVIASLDVETLDQSYYDETELK (SEQ ID NO: 25) ([2]; pH 9): 99.95% | No modification, GYYLETGSV...TFIVYK (SEQ ID NO: 29) ([2]; pH 9): 88.16% | No modification, MLEGEESVVYVGK (SEQ ID NO: 24) ([2]; pH 9): 99.94% | No modification, TPEDYTAFNGIELYQGX (SEQ ID NO: 26) ([2]; pH 9): 80.9% | No modification, VDGEICYVSCQNVK (SEQ ID NO: 18) ([2]; pH 9): 8.76% | Oxidation M2.00, GYYLETGSV...TFIVYK (SEQ ID NO: 29) ([2]; pH 9): 0% | Oxidation M198, GYYLETGSV...TFIVYK (SEQ ID NO: 29) ([2]; pH 9): 0% | Oxidation of M, MLEGEESVVYVGK (SEQ ID NO: 24) ([2]; pH 9): 0.61% | Carbamidomethy C147, VDGEICYVSCQNVK (SEQ ID NO: 18) ([2]; pH 9): 71.71% | Carbamidomethy C151, VDGEICYVSCQNVK (SEQ ID NO: 18) ([2]; pH 9): 12.45%
